Measurements: article PMC5405935, “Role of Kif15 and its novel mitotic partner KBP in K-fiber dynamics and chromosome alignment” (PLoS ONE, 2017)

B1: Kif15-M-His (amino acids 1-714, motor domain and part of the stalk) (domain or fragment, human, UniProt Q9NS87 1-714, looked up)
chain: MAPGCKTELRSVTNGQSNQPSNEGDAIKVFVRIRPPAERSGSADGEQNLCLSVLSSTSLRLHSNPEPKTFTFDHVADVDTTQESVFATVAKSIVESCMSGYNGTIFAYGQTGSGKTFTMMGPSESDNFSHNLRGVIPRSFEYLFSLIDREKEKAGAGKSFLCKCSFIEIYNEQIYDLLDSASAGLYLREHIKKGVFVVGAVEQVVTSAAEAYQVLSGGWRNRRVASTSMNRESSRSHAVFTITIESMEKSNEIVNIRTSLLNLVDLAGSERQKDTHAEGMRLKEAGNINRSLSCLGQVITALVDVGNGKQRHVCYRDSKLTFLLRDSLGGNAKTAIIANVHPGSRCFGETLSTLNFAQRAKLIKNKAVVNEDTQGNVSQLQAEVKRLKEQLAELASGQTPPESFLTRDKKKTNYMEYFQEAMLFFKKSEQEKKSLIEKVTQLEDLTLKKEKFIQSNKMIVKFREDQIIRLEKLHKESRGGFLPEEQDRLLSELRNEIQTLREQIEHHPRVAKYAMENHSLREENRRLRLLEPVKRAQEMDAQTIAKLEKAFSEISGMEKSDKNQQGFSPKAQKEPCLFANTEKLKAQLLQIQTELNNSKQEYEEFKELTRKRQLELESELQSLQKANLNLENLLEATKACKRQEVSQLNKIHAETLKIITTPTKAYQLHSRPVPKLSPEMGSFGSLYTQNSSILDNDILNEPVPPEMNEQAFEA
notes: Kif15, human, first 714 amino acids (motor domain and part of the stalk sufficient for dimerization), cloned into pET-21b; also called recombinant Kif15 motor domain; source: E. coli BL21 (DE3), purified (Ni-NTA)
B2: KBP-His (full-length His-tagged KBP) (natural protein, human, UniProt Q96EK5 1-621, looked up)
chain: MANVPWAEVCEKFQAALALSRVELHKNPEKEPYKSKYSARALLEEVKALLGPAPEDEDERPEAEDGPGAGDHALGLPAEVVEPEGPVAQRAVRLAVIEFHLGVNHIDTEELSAGEEHLVKCLRLLRRYRLSHDCISLCIQAQNNLGILWSEREEIETAQAYLESSEALYNQYMKEVGSPPLDPTERFLPEEEKLTEQERSKRFEKVYTHNLYYLAQVYQHLEMFEKAAHYCHSTLKRQLEHNAYHPIEWAINAATLSQFYINKLCFMEARHCLSAANVIFGQTGKISATEDTPEAEGEVPELYHQRKGEIARCWIKYCLTLMQNAQLSMQDNIGELDLDKQSELRALRKKELDEEESIRKKAVQFGTGELCDAISAVEEKVSYLRPLDFEEARELFLLGQHYVFEAKEFFQIDGYVTDHIEVVQDHSALFKVLAFFETDMERRCKMHKRRIAMLEPLTVDLNPQYYLLVNRQIQFEIAHAYYDMMDLKVAIADRLRDPDSHIVKKINNLNKSALKYYQLFLDSLRDPNKVFPEHIGEDVLRPAMLAKFRVARLYGKIITADPKKELENLATSLEHYKFIVDYCEKHPEAAQEIEVELELSKEMVSLLPTKMERFRTKMALT
notes: also called recombinant His-tagged KBP; source: E. coli BL21 (DE3), purified (Ni-NTA)

What was measured:
[1] = molecular target: the molecule itself; test: SEC + other: sucrose gradient centrifugation; 80 μg of each protein alone or both in motor buffer (100mM PIPES, 2mM MgAc2, 1mM EGTA, 1mM DTT), pre-incubated 30 min on ice; Superose 6 column; 6-28% sucrose gradients, 16 h at 4°C; with or without ATP; native molecular weights calculated from Stokes radius and sedimentation coefficient
[2] = molecular target: B1; test: as above; settings: both partners purified

| Binder | stoichiometry N [1] | stoichiometry N [2] [KBP per Kif15-M dimer] |
| --- | --- | --- |
| B1 | 2 |  |
| B2 |  | 2 |
